Values quoted from earlier work as cited in publication PMC3153048.

Columns and labels:
[1] = biological target: ExsD (Pseudomonas aeruginosa) (UniProt Q9I321)
[2] = biological target: ExsE (Pseudomonas aeruginosa) (UniProt Q9I322)
Sequence of UniProt Q9I322 (Q9I322 whole entry): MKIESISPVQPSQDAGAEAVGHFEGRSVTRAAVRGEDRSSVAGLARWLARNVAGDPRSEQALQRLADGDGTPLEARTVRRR

Sequence of UniProt Q9I321 (Q9I321 whole entry): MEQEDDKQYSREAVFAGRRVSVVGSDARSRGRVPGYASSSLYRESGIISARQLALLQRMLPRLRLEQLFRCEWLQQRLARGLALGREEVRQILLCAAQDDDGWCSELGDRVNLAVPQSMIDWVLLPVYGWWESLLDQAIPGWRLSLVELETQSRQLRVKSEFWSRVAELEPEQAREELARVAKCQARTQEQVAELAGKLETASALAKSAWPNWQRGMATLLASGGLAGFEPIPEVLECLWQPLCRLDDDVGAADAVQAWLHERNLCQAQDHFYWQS

ExsC (from UniProt P26995)
Kd [1]: 18 nM | Kd [2]: 1 nM
